Experimental data reported in patent US20240156864A1.

Molecular target: CAR19.28ζ
Test: co-IP with anti-CAR19 Ab from CAR-T cell lysate, LC-MS/MS

CAR19.28ζ, sequence (chain, as listed by the source limits assumed): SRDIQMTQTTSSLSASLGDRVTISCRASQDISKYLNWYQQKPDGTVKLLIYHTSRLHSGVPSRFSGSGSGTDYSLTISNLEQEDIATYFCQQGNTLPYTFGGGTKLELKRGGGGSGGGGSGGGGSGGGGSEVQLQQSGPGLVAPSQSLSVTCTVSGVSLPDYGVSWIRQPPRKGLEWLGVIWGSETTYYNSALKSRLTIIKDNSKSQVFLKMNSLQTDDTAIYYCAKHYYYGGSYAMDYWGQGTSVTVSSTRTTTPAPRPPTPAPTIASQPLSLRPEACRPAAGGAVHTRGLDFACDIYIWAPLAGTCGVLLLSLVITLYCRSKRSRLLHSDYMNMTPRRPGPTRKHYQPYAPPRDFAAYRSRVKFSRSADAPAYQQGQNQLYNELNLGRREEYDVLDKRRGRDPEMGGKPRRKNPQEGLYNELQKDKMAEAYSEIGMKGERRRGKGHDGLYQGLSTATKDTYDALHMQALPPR

Row | Area | Coverage | Peptides (number identified) | Substance
1 | 1.79e+08 | 13% |  | PIK3CD (from UniProt O00329 1-1044) (enzyme)
2 | 1.89e+07 | 3% | 2 | THEMIS (from UniProt Q8N1K5 1-641)

The next lines start with the substance.

Row | Substance | Area | Coverage | Peptides (number identified)
3 | CD8α (from UniProt P01732 22-235) (receptor) | 1.59e+08 | 32% | 
4 | LCK (from UniProt P06239 2-509) (enzyme) | 6.84e+08 | 32% | 
5 | PIK3R1 (from UniProt P27986 2-724) | 2.3e+08 | 17% | 
